Where two headings read alike, the source gives them in different places.
Legend:
[1] = tested on: affinity purified β2GPI-dependent antiphospholipid antibody; assay: Competitive inhibition ELISA: recombinant β2GPI proteins compete for antibody binding to coated full length recombinant β2GPI; set-up: species or system human; conditions: for IC50: read-out: 50% (concentration to give 50% inhibition)
Method: Microtiter plates (MaxiSorp™, Nalge Nunc International, Denmark) were coated with 50 μl of full length recombinant β2GPI at 10 μg/ml in 0.1 M bicarbonate, pH 9.5, incubated overnight at 4° C., washed three times with 0.15 M PBS, pH 7.2, and blocked for one hour at room temperature with 75 μl of 2% Non-fat Dried Milk (Carnation, 2% NFDM). Test inhibitors were diluted in 2% NFDM and 25 μl of each dilution was added to coated wells. Affinity purified β2GPI-dependent antiphospholipid antibody was diluted in 2% NFDM and 25 μl, of a constant concentration, was added to the wells, including a group of wells that had no inhibitor, which acted as the positive controls. The contents of the wells were mixed and the plates were incubated at 37° C. for one hour. The plates were washed three times with PBS, 50 μl of alkaline phosphatase conjugated anti-human IgG, gamma chain specific, (Zymed #62-8422) diluted appropriately in 2% NFDM was added and incubated at 37° C. for one hour. The plates were washed three times with PBS, 50 μl of alkaline phosphatase PPMP chromogenic substrate solution was added and incubated for 30 minutes, at room temperature. The Optical Density, at 550 nm, was determined by reading the plates in a microplate autoreader (Bio-Teck Instruments, model EL3 11). The percent inhibition was determined by dividing the OD550 obtained in the presence of inhibitor by the mean OD550 obtained from the wells without inhibitor and then multiplying by 100 (more particularly, [mean A550 obtained from control wells without inhibitor less A550 of background] minus [A550 obtained in presence of inhibitor less A550 of background] divided by [mean A550 obtained from control wells without inhibitor less A550 of background] times 100).
Seven to nine different recombinant β2GPI mutant proteins were used to determine the antigenic specificity of affinity purified β2GPI-dependent antiphospholipid antibody preparations from 13 different patients. Each mutant recombinant β2GPI protein was tested, in a dose dependent fashion, for its ability to inhibit affinity purified β2GPI-dependent antiphospholipid antibody from binding to full length recombinant β2GPI. The following values were also observed for domain 1 only recombinant protein (1 - - - -; see Table 2 for designations): […]

[2] = tested on: affinity purified β2GPI-dependent antiphospholipid antibody; assay: Direct binding ELISA, nickel chelate-coated wells charged with recombinant β2GPI proteins (no cardiolipin); set-up: species or system human; conditions: O.D. at 550 nm
Method: (§1) Nickel Chelate-coated microwell plates (NCP 010 00 Xenopore Corp. 374 Midland Ave. Saddle Brook, N.J. USA) were coated with 50 μl of serial dilutions of the various recombinant β2GPI, in PBS, at room temperature for 2 hours. The plates were washed three times with PBS and blocked with 75 μl of a 1% gelatin (Sigma #G-2500) in PBS for one hour room temperature. […] The plates were washed three times with PBS, 50 μl of alkaline phosphatase conjugated anti-immunoglobulin (anti-human IgG, gamma chain specific, Zymed #62-8422) or anti-rabbit IgG (Zymed #62-6122) diluted appropriately in 1% gelatin was added and incubated at 37° C. for one hour. The plates were washed three times with PBS, 50 μl of alkaline phosphatase PPMP chromogenic substrate solution was added and incubated for 30 minutes at room temperature. The optical density, at 550 nm, was determined by reading the plates in a microplate autoreader (Bio-Teck Instruments, model EL311).
(§2) Seven to nine different recombinant β2GPI mutant proteins were examined to determine if they could support the direct binding of affinity purified β2GPI-dependent antiphospholipid antibody preparations in the absence of anionic phospholipid. All recombinant mutant β2GPI were assayed with affinity purified β2GPI-dependent antiphospholipid antibody preparations from 11 different patients. Each mutant recombinant β2GPI protein was tested, in a dose dependent fashion and GST-6his was included as a negative control. The recombinant mutant β2GPI proteins were bound to nickel coated microtiter plates via their 6-his tail. All recombinant mutant β2GPI proteins tested bound rabbit anti-β2GPI showing that they were assessable by antibody (FIG. 5).

rabbit anti-β2GPI = assay: Direct binding ELISA, nickel chelate-coated wells, rabbit antibody; conditions: O.D. at 550 nm
Method: as §1, §2

B1: 123--: recombinant β2GPI deletion mutant with domains 1, 2, 3 (protein)
chain: GRTCPKPDDLPFSTVVPLKTFYEPGEEITYSCKPGYVSRGGMRKFICPLTGLWPINTLKCTPRVCPFAGILENGAVRYTTFEYPNTISFSCNTGFYLNGADSAKCTEEGKWSPELPVCAPIICPPPSIPTFATLRVYKPSAGNNSLYRDTAVFECLPQHAMFGNDTITCTTHGNWTKLPECGHHHHHH
For B1, the “Max (maximum inhibition observed at concentrations tested)” value ([1]; Ab 6203) was 75%, the IC50 ([1]; Ab 6203) was 1000 nM and the “Max (maximum inhibition observed at concentrations tested)” value ([1]; Ab 6501) was 85%. The IC50 ([1]; Ab 6501) was 800 nM, the “Max (maximum inhibition observed at concentrations tested)” value ([1]; Ab 6509) was 90% and the IC50 ([1]; Ab 6509) was 300 nM. For the same molecule, the “Max (maximum inhibition observed at concentrations tested)” value ([1]; Ab 6626) was 90%, the IC50 ([1]; Ab 6626) was 800 nM and the “Max (maximum inhibition observed at concentrations tested)” value ([1]; Ab 6632) was 90%. The IC50 ([1]; Ab 6632) was 200 nM, the “Max (maximum inhibition observed at concentrations tested)” value ([1]; Ab 6641) was 60% and the IC50 ([1]; Ab 6641) was 4000 nM. The “Max (maximum inhibition observed at concentrations tested)” value ([1]; Ab 6644) was 90%, the IC50 ([1]; Ab 6644) was 700 nM and the “Max (maximum inhibition observed at concentrations tested)” value ([1]; Ab 6652) was 95%. For the same molecule, the IC50 ([1]; Ab 6652) was 300 nM, the “Max (maximum inhibition observed at concentrations tested)” value ([1]; Ab 6701) was 95% and the IC50 ([1]; Ab 6701) was 300 nM. The “Max (maximum inhibition observed at concentrations tested)” value ([1]; Ab 7008) was 80%, the IC50 ([1]; Ab 7008) was 400 nM and the “Max (maximum inhibition observed at concentrations tested)” value ([1]; Ab 7015) was 90%. The IC50 ([1]; Ab 7015) was 700 nM, the “Max (maximum inhibition observed at concentrations tested)” value ([1]; Ab 7101) was 70% and the IC50 ([1]; Ab 7101) was 3000 nM. For the same molecule, the “Max (maximum inhibition observed at concentrations tested)” value ([1]; Ab 7104) was 98%, the IC50 ([1]; Ab 7104) was 1000 nM and the “Maximum O.D.” value ([2]; Ab 6203) was 0.938. The “Maximum O.D.” value ([2]; Ab 6501) was 0.909, the “Maximum O.D.” value ([2]; Ab 6626) was 1.250 and the “Maximum O.D.” value ([2]; Ab 6632) was 0.121. The “Maximum O.D.” value ([2]; Ab 6641) was 0.530, the “Maximum O.D.” value ([2]; Ab 6644) was 1.020 and the “Maximum O.D.” value ([2]; Ab 6652) was 0.320. For the same molecule, the “Maximum O.D.” value ([2]; Ab 6701) was 0.841, the “Maximum O.D.” value ([2]; Ab 7008) was 0.360 and the “Maximum O.D.” value ([2]; Ab 7015) was 1.160. For the same molecule, the “Maximum O.D.” value ([2]; Ab 7101) was 0.951 and the “Maximum O.D.” value (rabbit anti-β2GPI) was 1.971.

B2: 1234-: recombinant β2GPI deletion mutant with domains 1, 2, 3, 4 (protein)
chain: GRTCPKPDDLPFSTVVPLKTFYEPGEEITYSCKPGYVSRGGMRKFICPLTGLWPINTLKCTPRVCPFAGILENGAVRYTTFEYPNTISFSCNTGFYLNGADSAKCTEEGKWSPELPVCAPIICPPPSIPTFATLRVYKPSAGNNSLYRDTAVFECLPQHAMFGNDTITCTTHGNWTKLPECREVKCPFPSRPDNGFVNYPAKPTLYYKDKATFGCHDGYSLDGPEEIECTKLGNWSAMPSCGHHHHHH
For B2, the “Max (maximum inhibition observed at concentrations tested)” value ([1]; Ab 6203) was 30%, the IC50 ([1]; Ab 6203) was over 8000 nM and the “Max (maximum inhibition observed at concentrations tested)” value ([1]; Ab 6501) was 30%. For the same molecule, the IC50 ([1]; Ab 6501) was over 8000 nM, the “Max (maximum inhibition observed at concentrations tested)” value ([1]; Ab 6509) was 80% and the IC50 ([1]; Ab 6509) was 3000 nM. The “Max (maximum inhibition observed at concentrations tested)” value ([1]; Ab 6626) was 40%, the IC50 ([1]; Ab 6626) was over 8000 nM and the “Max (maximum inhibition observed at concentrations tested)” value ([1]; Ab 6632) was 60%. For the same molecule, the IC50 ([1]; Ab 6632) was 2000 nM, the “Max (maximum inhibition observed at concentrations tested)” value ([1]; Ab 6641) was 60% and the IC50 ([1]; Ab 6641) was 2000 nM. For the same molecule, the “Max (maximum inhibition observed at concentrations tested)” value ([1]; Ab 6644) was 50%, the IC50 ([1]; Ab 6644) was 8000 nM and the “Max (maximum inhibition observed at concentrations tested)” value ([1]; Ab 6652) was 100%. For the same molecule, the IC50 ([1]; Ab 6652) was 500 nM, the “Max (maximum inhibition observed at concentrations tested)” value ([1]; Ab 6701) was 30% and the IC50 ([1]; Ab 6701) was over 8000 nM. The “Max (maximum inhibition observed at concentrations tested)” value ([1]; Ab 7008) was 50%, the IC50 ([1]; Ab 7008) was over 8000 nM and the “Max (maximum inhibition observed at concentrations tested)” value ([1]; Ab 7015) was 50%. For the same molecule, the IC50 ([1]; Ab 7015) was 8000 nM, the “Max (maximum inhibition observed at concentrations tested)” value ([1]; Ab 7101) was 20% and the IC50 ([1]; Ab 7101) was over 8000 nM. The “Max (maximum inhibition observed at concentrations tested)” value ([1]; Ab 7104) was 90%, the IC50 ([1]; Ab 7104) was 700 nM and the “Maximum O.D.” value ([2]; Ab 6203) was 0.668. The “Maximum O.D.” value ([2]; Ab 6501) was 0.628, the “Maximum O.D.” value ([2]; Ab 6626) was 0.563 and the “Maximum O.D.” value ([2]; Ab 6632) was 0.003. The “Maximum O.D.” value ([2]; Ab 6641) was 0.145, the “Maximum O.D.” value ([2]; Ab 6644) was 0.768 and the “Maximum O.D.” value ([2]; Ab 6652) was 0.135. For the same molecule, the “Maximum O.D.” value ([2]; Ab 6701) was 0.715, the “Maximum O.D.” value ([2]; Ab 7008) was 0.149 and the “Maximum O.D.” value ([2]; Ab 7015) was 0.454. The “Maximum O.D.” value ([2]; Ab 7101) was 0.843 and the “Maximum O.D.” value (rabbit anti-β2GPI) was 1.708.

— patent publication US6858210B1, “Therapeutic and diagnostic domain 1 β2GPI polypeptides and methods of using same” (La Jolla Pharmaceutical Co., priority 1998, dated 2005)
